In paper PMC4703882 one finds K half data, which are given here for one substance.

The data set has as its system RAD51 wild type (Homo sapiens). Put plainly: EMSA. Particulars: 1 mM ATP, 2 mM Ca2+; saturated at 0.8 uM; EMSA: 50 mM Tris-HCl pH 7.5, 100 mM NaCl, 2 mM CaCl2, 1 mM ATP, 1 mM DTT, 5 nM DNA, 5 min at 37 C; 0.8% agarose in 1x TB (dsDNA) or 5% native PAGE in 0.5x TB …. A general note: A gel shift assay detects complexes by their altered migration in electrophoresis.

Turning to ds-66 bp-AF532, the K half amounted to 300 nM.
